Key:
[1] = target: SARS-CoV main protease Δ(297–306) (SARS-CoV); assay: AUC
[2] = target: SARS-CoV main protease Δ(298–306) (SARS-CoV); assay: AUC
[3] = target: SARS-CoV main protease Δ(301–306) (SARS-CoV)
[4] = target: SARS-CoV main protease Δ(302–306) (SARS-CoV); assay: AUC
[5] = target: SARS-CoV main protease Δ(303–306) (SARS-CoV); assay: AUC
[6] = target: SARS-CoV main protease Δ(303–306) (SARS-CoV)
[7] = target: SARS-CoV main protease Δ(304–306) (SARS-CoV); assay: AUC
[8] = target: SARS-CoV main protease Δ(304–306) (SARS-CoV)
[9] = target: SARS-CoV main protease Δ(305–306) (SARS-CoV); assay: AUC
[10] = target: SARS-CoV main protease Δ(305–306) (SARS-CoV)
[11] = target: SARS-CoV main protease Δ(306) (SARS-CoV); assay: AUC
[12] = target: SARS-CoV main protease Δ(306) (SARS-CoV)

## SARS-CoV main protease Δ(297–306) (domain or fragment)
[1]
  Kd: 393 µM
  koff: 123 s⁻¹

## SARS-CoV main protease Δ(298–306) (domain or fragment)
[2]
  Kd: 313 µM
  koff: 36 s⁻¹

## SARS-CoV main protease Δ(301–306) (domain or fragment)
[3]
  catalytic constant kcat for the 11-mer peptide ABZ-…-DNP: 0.025 s⁻¹

## SARS-CoV main protease Δ(302–306) (domain or fragment)
[4]
  koff: 0.01 s⁻¹

## SARS-CoV main protease Δ(303–306) (domain or fragment)
[5]
  Kd: 0.34 µM
[6]
  catalytic constant kcat for the 11-mer peptide ABZ-…-DNP: 0.022 s⁻¹

## SARS-CoV main protease Δ(304–306) (domain or fragment)
[7]
  koff: 0.01 s⁻¹
[8]
  catalytic constant kcat for the 11-mer peptide ABZ-…-DNP: 0.027 s⁻¹

## SARS-CoV main protease Δ(305–306) (domain or fragment)
[9]
  Kd: 0.08 µM
  koff: 0.14 s⁻¹
[10]
  catalytic constant kcat for the 11-mer peptide ABZ-…-DNP: 0.039 s⁻¹

## SARS-CoV main protease Δ(306) (domain or fragment)
[11]
  Kd: 0.1 µM
  koff: 0.6 s⁻¹
[12]
  catalytic constant kcat for the 11-mer peptide ABZ-…-DNP: 0.043 s⁻¹

Source: PMC7094404 (Archives of Biochemistry and Biophysics, 2008)
